Among the data in PMC7697860 are Kd, koff and kon values, retold here.

Where two headings read alike, the source gives them in different places.

The target in experiment [1] is GST-PfPV1 (wheat germ cell-free expression) (Plasmodium falciparum 3D7). The experiment in a line: SPR; […] (amine coupling), […]; Biacore X100, single-cycle kinetics, 1:1; HBS-EP+ (10 mM HEPES pH 7.4, 150 mM NaCl, 3 mM EDTA, 0.05% P20). Background: SPR reads the build-up and loss of mass on a sensor chip optically.
For experiment [2] the target is unchanged. The experiment is described as above. The source holds these as a separate data set.

Usually Kd stands for the constant that tells how readily two partners part at equilibrium. High values mean a looser complex, low ones a tighter complex. Usually koff stands for a measure of how fast the partners let go of each other. As usually defined, the kon is a measure of how fast the partners come together. The low end stands for slower complex formation, the high end for faster complex formation. In experiment [1], GST-EXP2 (natural protein) showed a Kd of 110 nM, a koff of 0.000989 s⁻¹ and an on-rate (kon) of 9030 M⁻¹ s⁻¹.
The matching figures for GST-HSP101 (natural protein): 10.5 nM, 0.000914 s⁻¹ and 87000 M⁻¹ s⁻¹.
In experiment [1], GST-PTEX150 (natural protein) gave a Kd of 54.5 nM, a koff of 0.00204 s⁻¹ and a kon of 37300 M⁻¹ s⁻¹. For the same substance, the Kd in experiment [2] is 54.6 nM.
